3 variants from IntAct's records for PubMed 9428767 can be followed below.

Sequences and labels used below:
B1: Guanine nucleotide-binding protein subunit beta (Saccharomyces cerevisiae), P18851 (parent)
chain: MAAHQMDSITYSNNVTQQYIQPQSLQDISAVEDEIQNKIEAARQESKQLHAQINKAKHKIQDASLFQMANKVTSLTKNKINLKPNIVLKGHNNKISDFRWSRDSKRILSASQDGFMLIWDSASGLKQNAIPLDSQWVLSCAISPSSTLVASAGLNNNCTIYRVSKENRVAQNVASIFKGHTCYISDIEFTDNAHILTASGDMTCALWDIPKAKRVREYSDHLGDVLALAIPEEPNSENSSNTFASCGSDGYTYIWDSRSPSAVQSFYVNDSDINALRFFKDGMSIVAGSDNGAINMYDLRSDCSIATFSLFRGYEERTPTPTYMAANMEYNTAQSPQTLKSTSSSYLDNQGVVSLDFSASGRLMYSCYTDIGCVVWDVLKGEIVGKLEGHGGRVTGVRSSPDGLAVCTGSWDSTMKIWSPGYQ
partner: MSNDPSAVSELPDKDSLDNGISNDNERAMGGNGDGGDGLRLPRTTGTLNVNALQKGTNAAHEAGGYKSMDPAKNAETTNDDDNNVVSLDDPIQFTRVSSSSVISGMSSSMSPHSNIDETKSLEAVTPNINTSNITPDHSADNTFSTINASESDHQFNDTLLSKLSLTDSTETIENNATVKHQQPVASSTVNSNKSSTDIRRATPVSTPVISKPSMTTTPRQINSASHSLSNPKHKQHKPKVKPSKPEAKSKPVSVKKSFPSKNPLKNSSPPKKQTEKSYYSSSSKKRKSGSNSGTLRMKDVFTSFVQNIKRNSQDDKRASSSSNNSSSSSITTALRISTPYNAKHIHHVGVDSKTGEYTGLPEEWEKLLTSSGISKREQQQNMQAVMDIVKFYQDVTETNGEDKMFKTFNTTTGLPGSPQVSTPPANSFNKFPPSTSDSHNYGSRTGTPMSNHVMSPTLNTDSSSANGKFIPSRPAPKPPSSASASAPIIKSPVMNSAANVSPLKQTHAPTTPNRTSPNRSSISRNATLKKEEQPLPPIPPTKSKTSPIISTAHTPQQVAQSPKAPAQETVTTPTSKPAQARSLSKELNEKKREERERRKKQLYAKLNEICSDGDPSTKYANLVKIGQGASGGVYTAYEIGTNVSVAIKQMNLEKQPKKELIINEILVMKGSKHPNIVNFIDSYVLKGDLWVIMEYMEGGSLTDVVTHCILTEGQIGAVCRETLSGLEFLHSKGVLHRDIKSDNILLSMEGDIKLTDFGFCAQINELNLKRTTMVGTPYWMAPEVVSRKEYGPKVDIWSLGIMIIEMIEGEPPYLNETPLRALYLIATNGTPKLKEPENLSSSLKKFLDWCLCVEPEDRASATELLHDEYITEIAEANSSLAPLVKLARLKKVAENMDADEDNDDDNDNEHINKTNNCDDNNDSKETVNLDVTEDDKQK
B2: Serine/threonine-protein kinase STE20 (Saccharomyces cerevisiae), Q03497 (parent)
chain: B1 partner
partner: B1 chain

Variants of B1 are the subject of the first test. The settings on record: with ste20_yeast STE20, Q03497.
With MAAHQMDSITYSNNVTQQYIQPQSLQDISAVEDEIQNKIEAARQESKQLHAQINDAKHKIQDASLFQMANKVTSLTKNKINLKPNIVLKGHNNKISDFRWSRDSKRILSASQDGFMLIWDSASGLKQNAIPLDSQWVLSCAISPSSTLVASAGLNNNCTIYRVSKENRVAQNVASIFKGHTCYISDIEFTDNAHILTASGDMTCALWDIPKAKRVREYSDHLGDVLALAIPEEPNSENSSNTFASCGSDGYTYIWDSRSPSAVQSFYVNDSDINALRFFKDGMSIVAGSDNGAINMYDLRSDCSIATFSLFRGYEERTPTPTYMAANMEYNTAQSPQTLKSTSSSYLDNQGVVSLDFSASGRLMYSCYTDIGCVVWDVLKGEIVGKLEGHGGRVTGVRSSPDGLAVCTGSWDSTMKIWSPGYQ [K55D], the “effect of a mutation on the interaction” value is listed as “decreasing interaction”.
For the variant MAAHQMDSITYSNNVTQQYIQPQSLQDISAVEDEIQNKIEAARQESKQLHAQINKAKHKIQNASLFQMANKVTSLTKNKINLKPNIVLKGHNNKISDFRWSRDSKRILSASQDGFMLIWDSASGLKQNAIPLDSQWVLSCAISPSSTLVASAGLNNNCTIYRVSKENRVAQNVASIFKGHTCYISDIEFTDNAHILTASGDMTCALWDIPKAKRVREYSDHLGDVLALAIPEEPNSENSSNTFASCGSDGYTYIWDSRSPSAVQSFYVNDSDINALRFFKDGMSIVAGSDNGAINMYDLRSDCSIATFSLFRGYEERTPTPTYMAANMEYNTAQSPQTLKSTSSSYLDNQGVVSLDFSASGRLMYSCYTDIGCVVWDVLKGEIVGKLEGHGGRVTGVRSSPDGLAVCTGSWDSTMKIWSPGYQ [D62N], the “effect of a mutation on the interaction” value is “decreasing interaction”.

Variants of B2 are the subject of another test. The settings on record: with gbb_yeast STE4, P18851.
In the case of S879A;S880A;P883A, the “effect of a mutation on the interaction” value is reported as “decreasing interaction”.
